Reference: US20100143888

Target: T1, MOC-Arg-Ala-Glu-Leu-Gln-Gly-Pro-Tyr-Asp-Lys-DNP-NH2
T1 chain: RAELQGPYDK

B1: Human Rhinovirus serotype 1A 3C Protease (protein)
chain: GPEEEFGRSILKNNTCVITTGNGKFTGLGIHDRILIIPTHADPGREVQVNGVHTKVLDSYDLYNRDGVKLEITVIQLDRNEKFRDIRKYIPETEDDYPECNLALSANQDEPTIIKVGDVVSYGNILLSGNQTARMLKYNYPTKSGYCGGVLYKIGQILGIHVGGNGRDGFSAMLLRSYFTDTQ
- Km (fluorescence resonance energy transfer protease activity assay): with a Km value of 16.8 µM
